The target in experiment [1] is T1, TRIB1(84–372) (human, UniProt Q96RU8 84-372).
T1 sequence: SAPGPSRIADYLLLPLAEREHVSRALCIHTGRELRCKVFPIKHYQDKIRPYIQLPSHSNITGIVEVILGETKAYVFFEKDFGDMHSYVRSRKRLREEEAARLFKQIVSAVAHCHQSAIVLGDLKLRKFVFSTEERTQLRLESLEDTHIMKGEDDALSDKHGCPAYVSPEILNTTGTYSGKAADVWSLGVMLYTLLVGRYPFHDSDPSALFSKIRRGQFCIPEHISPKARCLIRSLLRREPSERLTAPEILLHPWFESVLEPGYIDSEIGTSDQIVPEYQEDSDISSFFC
Nature of the experiment: differential scanning fluorimetry. On the technique in general: DSF heats the sample and reads unfolding from a dye or from intrinsic fluorescence.

The next experiment deals with T2, WT GST-TRIB1(84–372) (human, UniProt Q96RU8 84-372).
T2 sequence: T1 sequence
Nature of the experiment: pull-down.

Experiment [2] deals with T1, TRIB1(84–372). Nature of the experiment: ITC. (In ITC the heat of successive injections is recorded.)
Experiment [3] concerns the target T3, TRIB1(84–343), the pseudokinase part of the crystallised fusion (human, UniProt Q96RU8 84-343).
T3 sequence: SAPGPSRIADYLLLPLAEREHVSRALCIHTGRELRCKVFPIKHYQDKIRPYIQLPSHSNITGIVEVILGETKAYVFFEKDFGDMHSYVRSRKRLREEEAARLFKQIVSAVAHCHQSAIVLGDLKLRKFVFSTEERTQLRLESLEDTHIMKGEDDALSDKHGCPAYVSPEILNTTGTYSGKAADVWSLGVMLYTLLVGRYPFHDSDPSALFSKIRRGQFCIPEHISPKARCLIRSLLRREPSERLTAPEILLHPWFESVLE
The experiment can be described thus: crystal structure.

With GGICEHETSIDISAYIDPAAFND [C/EBPα peptide (53–75)], the binding result in the experiment with TRIB1(84–372) [1] was “binds”.
As for GGICEHETSIDISAYIDPAAFND [His6MBP-C/EBPα(53–75)], the binding result with WT GST-TRIB1(84–372) and with TRIB1(84–372) [2] was “binds” in each case.
In the case of GDMCEHEASIDLSAYIESGEEQL [C/EBPε(31–53) fused to maltose-binding protein], the binding result in the experiment with TRIB1(84–372) [2] is given as “binds”.
As to PAMYDDESAIDFSAYIDSMAAVP [C/EBPδ(50–72) fused to maltose-binding protein], in the experiment with TRIB1(84–372) [2], the binding result was “binds”.
In the case of GGICEHETSIDISAYIDPAAFND [C/EBPα(53–75), the degron part of the crystallised fusion], the binding result in experiment [3] is reported as “binds”.

The record behind these values is publication doi:10.1101/313767 (bioRxiv, 2018).
